Test system: EcR-B/VP16-USP heterodimer (Leptinotarsa decemlineata)
Assay: EMSA
Details: reference band for densitometry; little change with agonist

hsp27 EcRE probe
binding signal: 1
